# Test results from patent US10052415B2, “Tropoelastin for promoting endothelial cell adhesion or migration” (University of Utah Research Foundation, priority 2005, dated 2018).
# B1: tropoelastin: recombinant human tropoelastin lacking native signal sequence, 10× His tag and Factor Xa site on N-terminus, 706 amino acid residues (SEQ ID NO: 4) (protein, listed as Homo sapiens)
# chain: MGHHHHHHHHHHSSGGIEGRGGVPGAIPGGVPGGVFYPGAGLGALGGGALGPGGKPLKPVPGGLAGAGLGAGLGAFPAVTFPGALVPGGVADAAAAYKAAKAGAGLGGVPGVGGLGVSAGAVVPQPGAGVKPGKVPGVGLPGVYPGGVLPGARFPGVGVLPGVPTGAGVKPKAPGVGGAFAGIPGVGPFGGPQPGVPLGYPIKAPKLPGGYGLPYTTGKLPYGYGPGGVAGAAGKAGYPTGTGVGPQAAAAAAAKAAAKFGAGAAGVLPGVGGAGVPGVPGAIPGIGGIAGVGTPAAAAAAAAAAKAAKYGAAAGLVPGGPGFGPGVVGVPGAGVPGVGVPGAGIPVVPGAGIPGAAVPGVVSPEAAAKAAAKAAKYGARPGVGVGGIPTYGVGAGGFPGFGVGVGGIPGVAGVPGVGGVPGVGGVPGVGISPEAQAAAAAKAAKYGVGTPAAAAAKAAAKAAQFALLNLAGLVPGVGVAPGVGVAPGVGVAPGVGLAPGVGVAPGVGVAPGVGVAPGIGPGGVAAAAKSAAKVAAKAQLRAAAGLGAGIPGLGVGVGVPGLGVGAGVPGLGVGAGVPGFGAVPGALAAAKAAKYGAAVPGVLGGLGALGGVGIPGGVVGAGPAAAAAAAKAAAKAAQFGLVGAAGLGGLGVGGLGVPGVGGLGGIPPAAAAKAAKYGVAARPGFGLSPIFPGGACLGKACGRKRK
# What was measured:
# Assay type in all cases: cell-based
# [1] = system: human aortic endothelial cells (HuAEC); experiment: Cell adhesion assay on coated culture plates, HuAEC
# Procedure: (§1) Cells were plated on culture plates coated with either 0.1% BSA (as a control), 10 ug/ml fibronectin (FN), or 10 ug/ml recombinant tropoelastin, and assayed for adherence to the coated substrate.
# (§2) 96-well plates were coated in duplicate overnight at 4° C. with 10 μg/ml collagen, fibronectin, tropoelastin, or 0.1% bovine serum albumin (BSA). Cells were harvested with 0.25% trypsin/1 mM EDTA, washed three times in adhesion buffer (0.5% BSA in basal medium), suspended at a working density of 5×10^5/ml in adhesion buffer, and then allowed to recover for 1 h at 37° C. (5% CO2). For integrin-blocking assays, 25 μg/ml anti-integrin antibodies (Chemicon, Temecula, Calif.) or control IgG (Jackson ImmunoResearch Laboratories, Inc, West Grove, Pa.) were added to the cell suspension during the recovery period. During the cell recovery, the coated 96-well plates were washed twice in dPBS and blocked for 1 h at 25° C. in 5.0% BSA (dPBS). The blocking solution was removed, and the wells were washed twice in dPBS. Recovered cells were added to the coated wells in a volume of 100 μl per well and placed at 37° C. for 30 minutes (5% CO2). Following this incubation, the assay plate was inverted and assay wells were washed twice with 100 μl dPBS to remove non-specifically adhered cells. The wells were then fixed in Zamboni fixative, stained with Gill 1 hematoxylin, and overlayed with 80% glycerol. The assay was imaged at 100× magnification, capturing 3 random fields/well on a Zeiss Axiovert 200 inverted microscope equipped with a Zeiss Axiocam digital camera. Readings represent the number of adherent cells/well (average six high powered 100× fields, three taken from each of two separate wells).
# [2] = system: CHO cells; experiment: Cell adhesion assay on coated culture plates, CHO cells; settings: culture plates coated with 10 ug/ml protein; 0.1% BSA control
# Procedure: as §1
# as §2, with “Following this incubation, the assay plate was inverted and assay wells were washed twice with 100 μl dPBS to remove non-specifically adhered cells. The wells were then fixed in Zamboni fixative, stained with Gill 1 hematoxylin, and overlayed with 80% glycerol. The assay was imaged at 100× magnification, capturing 3 random fields/well on a Zeiss Axiovert 200 inverted microscope equipped with a Zeiss Axiocam digital camera.” left out
# [3] = system: human microvessel endothelial cells (HMVEC); experiment: Adhesion assay on coated stainless steel disks, HMVEC; settings: FIG. 6
# Excerpt: Given that an important aspect of the present invention is the prevention of restenosis and thrombosis, we conducted experiments to address whether endothelial cells would adhere to metal devices that had been coated with tropoelastin. Briefly, tropoelastin was covalently conjugated to a stainless steel disk approximately 6 mm in diameter. Tropoelastin was linked to the disk surface using an intermediate polysaccharide molecule. An exemplary process for covalently linking tropoelastin to the disk surface, and the process used here, is used in the manufacture of Genous Bio-Engineered R Stents. These disks provided ample surface area for microscopic imaging. Disks were also similarly coated with anti-CD34 antibody and with polysaccharide vehicle alone. Stents coated with anti-CD34 antibody using a similar process (Genous Bio-Engineered R Stents) are currently in human clinical trials and have promise to promote capture of circulating endothelial cells and endothelial progenitor cells and to accelerate endothelialization.
# Human microvessel endothelial cells (HMVEC) were cultured with these coated disks, and adhesion of the cells to the coated disks was assayed. […]
molecule,measurement,setting,value
B1,"HuAEC adhesion, number of cells bound/well, relative to other coats","[1]; FIG. 2, coated wells",comparable to that observed with fibronectin or collagen
same,adhesion of HuAEC to the coated substrate,"[1]; culture plates coated with 10 ug/ml protein, 0.1% BSA control",adhered to tropoelastin
same,adhesion of CHO cells to the coated substrate,[2],do not adhere to tropoelastin
same,HMVEC adhesion to coated disks relative to anti-CD34 antibody coated disks,[3],comparable to the adhesion of HMVECs to stainless steel disks coated with an anti-CD34 antibody
same,adhesion of HMVEC to coated stainless steel disks,[3]; protein covalently conjugated to 6 mm disk,promoted adhesion of human endothelial cells to a metal device
